Experimental data taken from publication PMC8341956.

Target: nucleosome core particle (recombinant Xenopus laevis histone octamer on 147 bp 601 DNA) (Xenopus laevis)
Assay: native gel or EMSA; as the gel shift with nucleosome cores (50 nM), at higher concentrations of HMGN1 (methods: 2-800 nM); ESI Fig. S9.3

full-length recombinant HMGN1 (HMGN1_1–99, unmodified) (natural protein)
stoichiometry N (HMGN1 molecules per nucleosome): > 2
